Laboratory results published in patent publication US12171828B2, “Quil A fraction with low toxicity and use thereof” (Novavax AB, priority 2003, dated 2024).

Test system: OVA
Assay: OVA-specific serum antibody ELISA, QWT-iscoms with CT or MPL (Example 7)
Assay type: in vivo, NMRI mice
Conditions: 5 μg OVA without adjuvant
Experimental: Sera were collected 3 weeks after priming and 2 weeks after the booster injection.
Serum antibody determination, including total IgG, and subclasses IgG1 and IgG2a, was carried in out in ELISA as described in example 1.

B1: OVA alone: ovalbumin, weak model antigen, given without adjuvant (protein, UniProt P01012 2-386, looked up)
Ovalbumin: GSIGAASMEFCFDVFKELKVHHANENIFYCPIAIMSALAMVYLGAKDSTRTQINKVVRFDKLPGFGDSIEAQCGTSVNVHSSLRDILNQITKPNDVYSFSLASRLYAEERYPILPEYLQCVKELYRGGLEPINFQTAADQARELINSWVESQTNGIIRNVLQPSSVDSQTAMVLVNAIVFKGLWEKAFKDEDTQAMPFRVTEQESKPVQMMYQIGLFRVASMASEKMKILELPFASGTMSMLVLLPDEVSGLEQLESIINFEKLTEWTSSNVMEERKIKVYLPRMKMEEKYNLTSVLMAMGITDVFSSSANLSGISSAESLKISQAVHAAHAEINEAGREVVGSAEAGVDAASVSEEFRADHPFLFCIKHIATNAVLFFGRCVSP
  serum IgG after booster: low serum levels of IgG
